Measurements from EP4785956A2 (CHUGAI SEIYAKU KABUSHIKI KAISHA, dated 2026).
One block for each binder: values may come before it.

Legend:
recombinant human C5 [1] = target: T1, recombinant human C5 (human, UniProt P01031 20-1676); test: SPR (BIACORE T200), antibody captured by ProA/G, recombinant human C5 injected, 37 degrees C, pH7.4; pH 7.4
T1 construct: The same entry is used here for C5 in normal human serum in the functional rows; also called hC5; rhC5

recombinant human C5 [2] = target: T1, recombinant human C5; test: SPR (BIACORE T200), antibody captured by ProA/G, recombinant human C5 injected, 37 degrees C, pH5.8; pH 5.8

koff (recombinant human C5 [1]): 9.77e-05 s⁻¹ | kon (recombinant human C5 [1]): 628000 M⁻¹ s⁻¹ | koff (recombinant human C5 [2]): 7.39e-05 s⁻¹ | kon (recombinant human C5 [2]): 1.24e+06 M⁻¹ s⁻¹
B1: CFA0341 (antibody, V domains shown)
VH: QSVEESGGRLVTPGTPLTLTCTVSGIDLSSYTMGWVRQAPGKGLECIGYIHSFGSTYYASWAKGRFTISKTSTTVDLEITSPTTEDTATYFCARDVGGSSGWDLWGQGTLVTVSS
VL: DVVMTQTPSSVSAAVGGTVTIKCQASENIYSNLAWYQQKPGQPPKRLIYDASDLASGVPSRFSGSGYGTQFTLTISGVQCEDAATYYCQANYDSTSSSFGNVFGGGTEVVVK

koff (recombinant human C5 [1]): 0.000202 s⁻¹ | kon (recombinant human C5 [1]): 1.66e+06 M⁻¹ s⁻¹ | koff (recombinant human C5 [2]): 0.000224 s⁻¹ | kon (recombinant human C5 [2]): 1.22e+06 M⁻¹ s⁻¹
B2: CFA0330 (antibody, V domains shown)
VH: QSLEESGGDLVEPGASLTLTCTASGFSWNSGYDMCWVRQAPGKGLEWIACIYTGSSANTAYANWAKGRFTISKTSSTTVTLQMTGLTAADTATYFCARHDDYFFDLWGPGTLVTVSS
VL: DVVMTQTPASVSESVGGTVTINCQASQSIGNNLAWYQQKPGQPPKLLIYDASNLASGVPSRFKGSRSGTEPTLTNTLTISGVQCADVATYYCQSGWYGNSYVAAFGGGTEVVVKR
